From a protein production outcome set (Wang et al. 2014)

Experiment: label from the status in PepcDB records

Sequence	protein production
MRMRRSFPFLAGSALLVVLSAPAVAADGDEGFTIGDSRITESSGLAASRLHPGVYWTHNDSDDGPYLYAVDSRTGKTVATVTLSGVGSPRDVEAISIGPGNEIYVGDIGDNLGGQWDHVWIYELPEPKVLEDQTIRATQYVVKYADGARDAESLMVHPKTGRVYIVDKKEDGGHLYEGPARLSASGTNVFEPLGAVGLWATDAAFSPDGKQLAVRGYFGGIAYTWNGGKIKRQGQLSVPLQRQGESVTYTADGSELMYGSEGADSAVKPGSVPGYSGSGAKSPSGGGGSASAQDGDSDGSHANYKVGALALAVALALGLGVKRLLRRG	failed
MRMSRIQARLLQAIVRPALKTNLLKHAAWRVVLKLRNEFAHAVPPVELETTFDENIRILTSLSDHIESQVFWQGFQEADEGVILLLKRFLPSDGSFIDVGANIGTFTLVAAHRAVRGQVHAFEPSAHHFARLAHNVELNDFKNVALNRKGLYDQPGEAVLFLPSQTGEMNNSGAASLYTSALEETRQVSEAVSLIRLDDYVREKSIGRVDIIKIDIEGAELKALEGARETIARFRPLVFMELDLDNLERAERSPEEVLQYWKSLNYEVSIILLTGETVPVTSPKEFGLHQNLQCRPF	failed
MRNETLVSIIVPVYNSAQYLRKCIDSILAQSYTEFELLLINDGSEDHSGLICDDYAQSDNRIQVFHQENAGVSAARNLGLEKHTGEHFLFIDSDDYIQERYLEELMKYASCDFVQCSCCSEPVGNDYLFVDGNFEGSDEIKQCLLKYIYPEFTVPFGRLYKSSIQRKNKLFFDTYLYSGEDTLWVSQYLLCVHSLRVSSYIGYIYVHHVGEHLSQKSISYEHLEYTLHKLLISYSDLEKRYDFDLTGVRYSVIIYFFHRYIVYIANRNYTEIRKELEKSCANPLIKGVFYDKKYLLKGKKMKLFNWLVLHDMYSVLALYVKRWKRYLLEHHHHHH	not failed
MRNKDNQHSRLYYIILTIVIIAICVVVVILFNTLKTNRSHSTDRYADFTELKKDTIKNKDWRIKTKHRKNKDILVTAIHGGGIEPGTTEIARRISNVGKYNFYTFEGLRKSNNDQLHVTSTQFNEPILDKLLKNTKETLSIHGFSGDDPIVYIGGKDKEMSHSITKELRKKDFTVKESPNKIDAKSSDNIANKNESNSGVQLELTTALRKQFFKHYKLDRHTRSDSDKYTKDFYKFANAVQKGIEKVNLEHHHHHH	not failed
MRNMQEKGVSEKEILEELKKYRSLDLKYEDGNIFGSMCSNVLPITRKIVDIFLETNLGDPGLFKGTKLLEEKAVALLGSLLNNKDAYGHIVSGGTEANLMALRCIKNIWREKRRKGLSKNEHPKIIVPITAHFSFEKGREMMDLEYIYAPIKEDYTIDEKFVKDAVEDYDVDGIIGIAGTTELGTIDNIEELSKIAKENNIYIHVDAAFGGLVIPFLDDKYKKKGVNYKFDFSLGVDSITIDPHKMGHCPIPSGGILFKDIGYKRYLDVDAPYLTETRQATILGTRVGFGGACTYAVLRYLGREGQRKIVNECMENTLYLYKKLKENNFKPVIEPILNIVAIEDEDYKEVCKKLRDRGIYVSVCNCVKALRIVVMPHIKREHIDNFIEILNSIKRD	not failed
MRNVIAAVMASTLALSAYSQAAEVVTSVNWLPGDEGGQRGSQSHMFDGISLTEQQRQQLRDLMQRARHDRLPVNVSEMETMHRLVTAENFDENAVRAQAEKMAQEQVARQVEMAKVRNQMYHLLTPEQQAVLNAKHQQRMDQLREVARMQKGSAMMLSSSSNTLQPQ	failed
MRNYIQGIDHVQVAAPVGCEEEARAFYGETIGMEEIPKPEELKKRGGCWFKCGNQEIHIGVEQNFNPAKRAHPAFYVLKIDEFKQELIKQGIEVIDDHARPDVIRFYVSDPFGNRIEFMENKN	not failed
MRPIPEGYEAVFETVVTPEMTVRFEELGPVHPVYATYWMVKHMELAGRKIILPFLEEGEEGIGSYVEARHLASALPGMRVRVVARHEKTEGNRVYARVEAYNELGDLIGVGRTEQVILPKAKVEALFRRLKERWEAERSPS	not failed
MRPNLLEALRAMTEGELYAALYQDPLTGVLNRRAFAGAIEEARAVALVDMDSLKWINDNLGHRAGDRALRVLADGLVRSFGADWVFRVSGDEFAVMDGDAEQLAQRLLLLRSSVPGFSFGTGSDMAEADRDMRHDKAEREKSGHRAARGLRPPWVP	failed
MRQIPQNHIHTRSTPFWNKETAPAGIFERHLDKGTRPDVYPRLSVMQGAVKYLGYADEHCSEPEEIMVINAGEFGVFPPEKWHNIEVMTDDTYFNIDFFVAPEVLMEGATSRKVIHAGRELEHHHHHH	not failed
MRQIRYAYAVAVDALYTFLADDGWAIASHIALSTLMALFPFLIVLTSLAGFVGSRELADSAAELLLDVWPAQVASTLSGEIHDVLTTTRGGVLTIGLVLALYFASNGVESLRVGLNRAYAVIEPRPWYLLRLESIGYTLVAAFTALAMGFLIVLGPLIVATARHYVPLLVHDNEPLLTFARYGIAITALTVALFLLHAYLPAGRRSFRQILPGIVFTITASLISGMTFGMYLARFANNYVSMYAGLASVIIALVFLYFIAAIFVYGGELNAAIIKSRLPEGTTLQEAQLRAPGAKPV	not failed
MRQLTAAALYENLFGPLALAYAPGRPFEWRSNGRAWRARGRLGAFGRPRLEPGTVECRTGRAWRQASIADAVAALPGAPQEHARLRHELNQTEALLRWNRVNAPRHDRRRMSFSALDAAIDEGHPYHPCFKSRTGFDEHDHRCYGPEADGTFQLDWLGVARELLHLSFPSTEASFWKRELGAAGLADIEARAAALGLEHDRFGLMPIHPWQWRDLSADRLRPLLQSGRIHYLGAAGDRYRASQSVRTLSNAQAPHRSSVKLALGIVNTSTRRNIEAHSVATAPVLSRWLDTILDSDPLFRLRYRLDIVSEFAGAIVDRDGPLGGEIAAIWRESVESKLADGESAVPFNALMAIEADGLPFIDPWLQRYGLKPWLDRLVEVAVLPVWRLLVVHGIATEAHGQNMVLVHRDGWPERLILRDFHDSLEFVPDFLADPNLAPDFLTLDPRYRRALPNQYYWMERPEDLRDLFVDCLFVFNLSEISHLVQSFYGISEGAFWHRVSLRLAADIAEHGLGERVARLGFGTPEIVIESLLARKLGLSGDALQHNVPNPLAAVVPLAREYA	failed
MRRAEIPMNPLINHPAILFVVMLVVMSSATALGALVLRRIRPLPAEVKDDFGIVQGATLTLLALLIGFTLSMAVGRYDQRKNLEEEEANAIGTEYLRADLIEGPEAEQVKALLVRYLDQRILYYRTRDSAQLQEIEAATSQIEDEMWKLMRSAARAKPTPITGLVVSGMNDVINSQGYAEAAWINRIPVSAWGLMIVIAFFSSMMQGYGARSENAKIILMLVLPFTVSLSLALISDIDSPRGGLIRVLPQNLLSLQASLKR	failed
MRRAGYLHLYGLNLVFDRVGKGPPVLLVAEEASRWPEALPEGYAFYLLDLPGYGRTEGPRMAPEELAHFVAGFAVMMNLGAPWVLLRGLGLALGPHLEALGLRALPAEGVEVAEVLSSKLSYGNIDLGGNL	not failed
MRRELLLEKIETYKAIMPWYVLDYYQSKLAVPYSFTTLYEYLKEYKRFFDWLMDADLTQAPKIADIDLSTLEHLTKKDLEAFVLYLRERPSLNTYSTKEGLSQTTINRTLSALSSLYKYLTEEVENDQGEPYFYRNVMKKVSTKKKKETLASRAENIKQKLFLGDETLAFLDYVDKEYEQKLSNRAKSSFRKNKE	failed
MRRFNTSQNKNERNLFNDYIKNEDELYDERDDEGINKEPISLKADVNNNFFPIDQIHSTYFLCNNLNNDNTEKEINEHISFEKIQDHEKEEKKKIFLFNLSDNQKKQIENLKINKIIQNEMYLKKNKILKYIIHIFISDILKEKPNDVYDYASNYFTQPQFKMYILEKLKLRINK	failed
MRRGLVIVGHGSQLNHYREVMELHRKRIEESGAFDEVKIAFAARKRRPMPDEAIREMNCDIIYVVPLFISYGLHVTEDLPDLLGFPRGRGIKEGEFEGKKVVICEPIGEDYFVTYAILNSVFRIGRDGKGEE	not failed
MRRHTSSLDDQSLWRVALDYARDAAVIIDDGGHICYVNQAAERIWGIGRADLVGSHSDCLGVDAIQPEPVAGSHLTNAASDLPLAIDITSRDNRSITAELTRSTIRVDGLNYTMLTVRDVT	failed
MRRILGPVLAAHYLAAFTALGMPLFLPQVLAELAPSAAVGWSGVLYVLPTLCTALTASTWGRWADRNGRKRSLLRAQLGLALGFAIAGFAPSLTWLVIGLIVQGTCGGSLAAANAYLASQPQAGPLARALDWTQYSARLAMVSAPALLGLALALGPAQSLYRALALLPLIAFALTWRLPADQPAAREPAAGTPATSLKHAASSPASPRTVAATSWPALLLAQFLFCFAMVVTFPYFIPYALARGAGHDALAGLLYSLPHLVYLVVLPWWRRGDGEAWLVPGLALFAAACVWQALLHDALALAAARLLFGFGMLFGLRGLNRSLAHIASGHSAGRLFGRFDACGKWAGVFAGAAAGALAQASGPATPFLAAALAAAAAALTVLVRFPSRRTADVAAHDA	failed
MRRLPPWMLGGASTGEAAARNGSQPEAPKTKAEKRPKRVQKTKEKDLNLKSDEPKRVPRKIREEAKRSPEVIQSVTVPEDDDLTVDDLLSFANEVM	failed
MRRLQREIRTYDEEQLKQVREELTTYDLMTRNALLQTAHDLRAKVEQEAVPEGEQATTYLKAVVDDRRHELSVFLPATQASAALENVRRHLVNQILSIGGKAKKLETERCAAERHLKRPTVEVVQREHDAHLRRLRQWQEVQSRFQTWHTYEQAYARWPDLAAAFDSGPTEAATRVATELHKRTLATMQEQDRWREFLRQATEQEHQRQLTPPEDDLPEDDLEEDTWAAAESSEPSGSLFSRLGHTLSRLMAPPGPDEVPSAATAPRETDGWDDVQPQIAPDPRSTVPGLWDDADDLTPVSPVAPARPAPSPPVYDAAAVPALDIDFSAAPRRSRTPAEQMPDPFARAARVRSARRTTTPLVPVPQQLDAAEMPAPRPARTPPGRPATAGNVAPPSAPRTARPPSPTLADFDLWDDEEDMPFGPPATPAPAAASVPQMVPTPRAAARPTPRPVSSPGPSPVPVSPASASVSHAAPWEEPAAGRPAPAPSGVSRRGATRLALPSEQLLDPLPNGARNTVQMDLDAERRGDMINETLRQFGLQAKVVDLARGPTVTRYEIEPAPGEKISRIASLSNDLARALAVGGVRVEAPVPGKSVIGLEVPNAEREPVTFHQATANPAFKNTRAKLPIILGKSIDGSMMVGDLAKMPHLLVAGSTGSGKSVCVNTLITSLLYRYLPTELRFVMIDPKMVELTPYDGIPHLVRPVVTNPADAAGVLLGAVAHMERRYKMMSQVGAKNLEQFNAKMRAVGEVELPHLVIIIDELADLMITSPKEVESAIMRLAQMARATGMHLILATQRPSVDILTSLIKVNIPARIAFAVSSSHDSRTILDTTGAERLTGMGDMLFYQPGLVKPLRLQGPYISEAESARITDELRRMMFDDDFIEAYGADFEGMISSSGPGGDRSQLDFSDPLLRQAALVCIEEGQGSVSRLQRRLSVGHARAGKLMDLLEAMNIVGPHQGSKPREVLIHEADLPEYFGK	failed
MRRRDARPQGTGTAGPTGARHGEDADGTPRHMNAPKGLPLWLKIVTGVVSVALVAGVAFAAFWFIRLQTNITKAPLSAGETRNAGDPLVDDKTDRLQILILGSDTRDGKNAEYGSTEDSTGYGHSDVMMLLDISADNKRVNVLSFPRDLLVDVPQCTDRTNNQTFPARSGVMINEAMAEAGIGCAVDTVNQLTGLEIDHFMMADFNAVKELSHAVGGVNVCVSDPVFDPDSRLRLAKGDSLVEGEQALAFLRTRHAFGDGGDLGRIKGQQAFLSSLTRKLKDEGTLGNPQRLLQIADVVTQNLTVDEGLASVPSLLTIGGRLKDIDVSKVAFVAVPTQAAAADINRLELIEPQASQLFAALRADLDLTTPGATAPPAPSESPAPQPTATTPPAPAYDKAIQPVAVANGSGVATRAQELMTVLTGNGFAQTVSYLANPVDQTVLYYGPGFADVAADVATLFGIPAAQVQEAPGVAGVQLYVGTDFSSGTAYGAASVPSDVVNQTANDAVCQQVNPLYIDQQ	failed
